Series [1] deals with the molecule itself. Briefly: AUC; sedimentation velocity, 4 to 10 µM protein, absorbance at 280 nm, 10 mM NaH2PO4, 400 mM NaCl, 5% glycerin, pH 7.5; c(S) method (SedFit).
Series [2] concerns the molecule itself. As to the kind of experiment: cross-linking; disulfide formed on oxidation: purified, reduced protein treated with HOCl (25 µM), NH2Cl (25 µM) or H2O2 (1 mM), then non-reducing SDS-PAGE; disulfide-linked dimer at ca. 64 kDa, mostly reduced again by 1 mM TCEP.

B1: HypT (wild-type, purified) (natural protein, E. coli, UniProt P39376 1-303, looked up)
chain: MDDCGAILHNIETKWLYDFLTLEKCRNFSQAAVSRNVSQPAFSRRIRALEQAIGVELFNRQVTPLQLSEQGKIFHSQIRHLLQQLESNLAELRGGSDYAQRKIKIAAAHSLSLGLLPSIISQMPPLFTWAIEAIDVDEAVDKLREGQSDCIFSFHDEDLLEAPFDHIRLFESQLFPVCASDEHGEALFNLAQPHFPLLNYSRNSYMGRLINRTLTRHSELSFSTFFVSSMSELLKQVALDGCGIAWLPEYAIQQEIRSGKLVVLNRDELVIPIQAYAYRMNTRMNPVAERFWRELRELEIVLS
notes: HypT (YjiE), HOCl-specific LysR-type transcription factor of E. coli; Oxidation (HOCl, NH2Cl, H2O2) gives a Cys4-Cys4 disulfide between two chains; also called YjiE; wild-type HypT; source: E. coli BL21 (DE3) gold, pET11a, purified (HisTrap, PD10 desalting); copies: 12
By stoichiometry N is commonly meant a count of units in the complex or per binding partner. As for B1, the “stoichiometry N” value in series [1] worked out at 12.

B2: HypT^C242S (natural protein, E. coli, UniProt P39376 1-303, looked up)
chain: MDDCGAILHNIETKWLYDFLTLEKCRNFSQAAVSRNVSQPAFSRRIRALEQAIGVELFNRQVTPLQLSEQGKIFHSQIRHLLQQLESNLAELRGGSDYAQRKIKIAAAHSLSLGLLPSIISQMPPLFTWAIEAIDVDEAVDKLREGQSDCIFSFHDEDLLEAPFDHIRLFESQLFPVCASDEHGEALFNLAQPHFPLLNYSRNSYMGRLINRTLTRHSELSFSTFFVSSMSELLKQVALDGSGIAWLPEYAIQQEIRSGKLVVLNRDELVIPIQAYAYRMNTRMNPVAERFWRELRELEIVLS
notes: HypT (YjiE) of E. coli, single mutant C242S; source: E. coli BL21 (DE3) gold, pET11a, purified (HisTrap, PD10 desalting)
Turning to B2, the binding result in series [2] was “binds”.

B3: HypT^C178S (natural protein, E. coli, UniProt P39376 1-303, looked up)
chain: MDDCGAILHNIETKWLYDFLTLEKCRNFSQAAVSRNVSQPAFSRRIRALEQAIGVELFNRQVTPLQLSEQGKIFHSQIRHLLQQLESNLAELRGGSDYAQRKIKIAAAHSLSLGLLPSIISQMPPLFTWAIEAIDVDEAVDKLREGQSDCIFSFHDEDLLEAPFDHIRLFESQLFPVSASDEHGEALFNLAQPHFPLLNYSRNSYMGRLINRTLTRHSELSFSTFFVSSMSELLKQVALDGCGIAWLPEYAIQQEIRSGKLVVLNRDELVIPIQAYAYRMNTRMNPVAERFWRELRELEIVLS
notes: HypT (YjiE) of E. coli, single mutant C178S; source: E. coli BL21 (DE3) gold, pET11a, purified (HisTrap, PD10 desalting)
In the case of B3, the binding result in series [2] is reported as “binds”.

B4: HypT^C25S (natural protein, E. coli, UniProt P39376 1-303, looked up)
chain: MDDCGAILHNIETKWLYDFLTLEKSRNFSQAAVSRNVSQPAFSRRIRALEQAIGVELFNRQVTPLQLSEQGKIFHSQIRHLLQQLESNLAELRGGSDYAQRKIKIAAAHSLSLGLLPSIISQMPPLFTWAIEAIDVDEAVDKLREGQSDCIFSFHDEDLLEAPFDHIRLFESQLFPVCASDEHGEALFNLAQPHFPLLNYSRNSYMGRLINRTLTRHSELSFSTFFVSSMSELLKQVALDGCGIAWLPEYAIQQEIRSGKLVVLNRDELVIPIQAYAYRMNTRMNPVAERFWRELRELEIVLS
notes: HypT (YjiE) of E. coli, single mutant C25S; source: E. coli BL21 (DE3) gold, pET28a, purified (HisTrap, PD10 desalting)
Turning to B4, the binding result in series [2] is reported as “binds”.

B5: HypT^5C→S (natural protein, E. coli, UniProt P39376 1-303, looked up)
chain: MDDSGAILHNIETKWLYDFLTLEKSRNFSQAAVSRNVSQPAFSRRIRALEQAIGVELFNRQVTPLQLSEQGKIFHSQIRHLLQQLESNLAELRGGSDYAQRKIKIAAAHSLSLGLLPSIISQMPPLFTWAIEAIDVDEAVDKLREGQSDSIFSFHDEDLLEAPFDHIRLFESQLFPVSASDEHGEALFNLAQPHFPLLNYSRNSYMGRLINRTLTRHSELSFSTFFVSSMSELLKQVALDGSGIAWLPEYAIQQEIRSGKLVVLNRDELVIPIQAYAYRMNTRMNPVAERFWRELRELEIVLS
notes: also called cysteine-free HypT mutant; source: E. coli BL21 (DE3) gold, pET28a, purified (HisTrap, PD10 desalting)
B5: the “stoichiometry N” value in series [1] came to 4.

B6: HypT^C150S (natural protein, E. coli, UniProt P39376 1-303, looked up)
chain: MDDCGAILHNIETKWLYDFLTLEKCRNFSQAAVSRNVSQPAFSRRIRALEQAIGVELFNRQVTPLQLSEQGKIFHSQIRHLLQQLESNLAELRGGSDYAQRKIKIAAAHSLSLGLLPSIISQMPPLFTWAIEAIDVDEAVDKLREGQSDSIFSFHDEDLLEAPFDHIRLFESQLFPVCASDEHGEALFNLAQPHFPLLNYSRNSYMGRLINRTLTRHSELSFSTFFVSSMSELLKQVALDGCGIAWLPEYAIQQEIRSGKLVVLNRDELVIPIQAYAYRMNTRMNPVAERFWRELRELEIVLS
notes: HypT (YjiE) of E. coli, single mutant C150S; source: E. coli BL21 (DE3) gold, pET11a, purified (HisTrap, PD10 desalting)
B6: the binding result in series [2] is “binds”.

B7: HypT^quadrupleC150 (natural protein, E. coli, UniProt P39376 1-303, looked up)
chain: MDDSGAILHNIETKWLYDFLTLEKSRNFSQAAVSRNVSQPAFSRRIRALEQAIGVELFNRQVTPLQLSEQGKIFHSQIRHLLQQLESNLAELRGGSDYAQRKIKIAAAHSLSLGLLPSIISQMPPLFTWAIEAIDVDEAVDKLREGQSDCIFSFHDEDLLEAPFDHIRLFESQLFPVSASDEHGEALFNLAQPHFPLLNYSRNSYMGRLINRTLTRHSELSFSTFFVSSMSELLKQVALDGSGIAWLPEYAIQQEIRSGKLVVLNRDELVIPIQAYAYRMNTRMNPVAERFWRELRELEIVLS
notes: HypT (YjiE) of E. coli, quadruple mutant: four cysteines replaced by serine, Cys150 left intact; source: E. coli BL21 (DE3) gold, pET28a, purified (HisTrap, PD10 desalting)
B7: the binding result in series [1] was “binds”.

Source of the values: article PMC3792123, “Role of Cysteines in the Stability and DNA-Binding Activity of the Hypochlorite-Specific Transcription Factor HypT” (PLoS ONE, 2013).
